Molecular target: T1, P220 MMP9-cleavable peptide, Biotin-GGGGGGGGGGPLGVRGKGGC
T1 chain: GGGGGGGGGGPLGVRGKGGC

B1: MMP7 (Active, Human, Recombinant, E. coli, 444270, Merck Millipore) (protein)
chain: YSLFPNSPKWTSKVVTYRIVSYTRDLPHITVDRLVSKALNMWGKEIPLHFRKVVWGTADIMIGFARGAHGDSYPFDGPGNTLAHAFAPGTGLGGDAHFDEDERWTDGSSLGINFLYAATHELGHSLGMGHSSDPNAVMYPTYGNGDPQNFKLSQDDIKGIQKLYGKRSNSRKK
- % Cleavage (free AuNC fraction: 7-12 mL), gel filtration chromatography with catalytic activity readout; AuNC-P220-NAv + MMP7/9/13 (12 h): MMP7: 12.1%
